According to patent US20090226415A1, “MODIFIED TRIDEGINS, PRODUCTION AND USE THEREOF AS TRANSGLUTAMINASE INHIBITORS” (priority 2001, published 2009):

T1: factor XIIIa (Homo sapiens, UniProt P00488)
T1 sequence (P00488 39-732 limits assumed): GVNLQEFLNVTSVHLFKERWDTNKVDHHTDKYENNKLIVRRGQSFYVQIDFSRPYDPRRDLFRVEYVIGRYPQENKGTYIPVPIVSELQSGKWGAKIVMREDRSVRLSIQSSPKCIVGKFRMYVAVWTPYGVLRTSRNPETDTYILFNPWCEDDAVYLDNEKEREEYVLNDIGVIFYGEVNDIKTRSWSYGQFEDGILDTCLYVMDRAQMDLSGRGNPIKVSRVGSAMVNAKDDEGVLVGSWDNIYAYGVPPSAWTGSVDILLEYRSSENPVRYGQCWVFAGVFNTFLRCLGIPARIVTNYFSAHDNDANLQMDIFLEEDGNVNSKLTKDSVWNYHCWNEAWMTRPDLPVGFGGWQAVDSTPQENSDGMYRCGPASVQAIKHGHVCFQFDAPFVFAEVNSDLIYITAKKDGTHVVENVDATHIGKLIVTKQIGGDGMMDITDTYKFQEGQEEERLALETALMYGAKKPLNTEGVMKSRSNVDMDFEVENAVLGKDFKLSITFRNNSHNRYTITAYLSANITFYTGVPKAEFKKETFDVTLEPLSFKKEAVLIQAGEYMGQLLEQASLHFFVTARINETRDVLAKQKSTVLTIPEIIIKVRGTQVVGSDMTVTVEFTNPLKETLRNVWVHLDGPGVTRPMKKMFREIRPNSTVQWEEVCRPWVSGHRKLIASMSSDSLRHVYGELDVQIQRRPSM


Biological target: T1, factor XIIIa
Experiment: biochemical
Format: biochemical
Conditions: not given
Protocol: The assay is based on factor XIII being activated to form factor XIIIa by thrombin which is present in the reagents. Factor XIIIa links a specific peptide substrate to glycine ethyl ester with ammonium ions being released. The latter are determined in an enzyme reaction which proceeds in parallel. The extinction at 340 nm was used to measure the decrease in NADH. For the measurement, peptides were present in 50% acetonitrile in a stock concentration of 5 mM. The NADH and detection reagents which were supplied by the manufacturer were dissolved in 3 ml of water, with the activator reagent subsequently being dissolved in 3 ml of NADH reagent. For use, the activator and detection reagents were mixed in a ratio of 1:1. In order to carry out the measurement in microtiter plate format, 100 μl of sample (inhibitor or control buffer), 25 μl of factor XIII (10 U/ml) and 150 μl of working reagent were mixed. The measurement was carried out continuously for 20 min at 340 nm, and at 37° C., in a microtiter plate photometer. For the evaluation, the differences in the values measured after 16 and 20 min were compared.
The relative inhibitory effect (%) was determined at a final variant concentration of 5.45 μM. The inhibitory effect of the recombinant tridegin polypeptide was normalized to 100% (at 5.45 μM).
The above-described Berichrom® assay was used to determine the relative inhibitory effect (%) at a final concentration of the peptides of 7.27 μM. The inhibitory effect of the recombinant tridegin polypeptide, at a final concentration of 7.27 μM, was normalized to 100%.
The relative inhibitory effect (%) was determined at a final variant concentration of 5.45 μM. The inhibitory effect of the recombinant wild-type tridegin poly-peptide (at 5.45 μM) was normalized to 100%. The oligonucleotides which were used to produce the abovementioned variants are also specified in the table.

Row | Molecule | inhibitory activity compared with wild-type tridegin polypeptide expressed in Escherichia coli
1 | recombinant tridegin polypeptide expressed in the yeast Pichia pastoris: tridegin polypeptide encoded by SEQ ID No. 90, secreted from Pichia pastoris; main product lacks the 11 C-terminal residues (protein, main product lacks 11 C-terminal residues, main product lacks the 11 C-terminal residues) MRFPSIFTAVLFAASSALAAPVNTTTEDETAQIPAEAVIGYSDLEGDFDVAVLPFSNSTNNGLLFINTTIASIAAKEEGVSLEKRKLLPCKEWHQGIPNPRCWCGADLECAQDQYCAFIPQCRPRSELIKPMDDIYQRPVEFPNLPLKPREESLEHHHHHH | even more effective

Same assay, conditions: Table 2; final variant concentration 5.45 μM; recombinant tridegin polypeptide normalized to 100%

Row | Molecule | Relative inhibitory effect (%)
2 | H10A: modified tridegin, XnY mutation of SEQ ID No. 1, expressed in Escherichia coli (protein) MKLLPCKEWAQGIPNPRCWCGADLECAQDQYCAFIPQCRPRSELIKPMDDIYQRPVEFPNLPLKPREE | 87
3 | I45A: modified tridegin, XnY mutation of SEQ ID No. 1, expressed in Escherichia coli (protein) MKLLPCKEWHQGIPNPRCWCGADLECAQDQYCAFIPQCRPRSELAKPMDDIYQRPVEFPNLPLKPREE | 115
4 | D50A: modified tridegin, XnY mutation of SEQ ID No. 1, expressed in Escherichia coli (protein) MKLLPCKEWHQGIPNPRCWCGADLECAQDQYCAFIPQCRPRSELIKPMDAIYQRPVEFPNLPLKPREE | 53
5 | G12A: modified tridegin, XnY mutation of SEQ ID No. 1, expressed in Escherichia coli (protein) MKLLPCKEWHQAIPNPRCWCGADLECAQDQYCAFIPQCRPRSELIKPMDDIYQRPVEFPNLPLKPREE | 97
6 | M48A: modified tridegin, XnY mutation of SEQ ID No. 1, expressed in Escherichia coli (protein) MKLLPCKEWHQGIPNPRCWCGADLECAQDQYCAFIPQCRPRSELIKPADDIYQRPVEFPNLPLKPREE | 91
7 | L24A: modified tridegin, XnY mutation of SEQ ID No. 1, expressed in Escherichia coli (protein) MKLLPCKEWHQGIPNPRCWCGADAECAQDQYCAFIPQCRPRSELIKPMDDIYQRPVEFPNLPLKPREE | 92
8 | F58A: modified tridegin, XnY mutation of SEQ ID No. 1, expressed in Escherichia coli (protein) MKLLPCKEWHQGIPNPRCWCGADLECAQDQYCAFIPQCRPRSELIKPMDDIYQRPVEAPNLPLKPREE | 60
9 | Y31A: modified tridegin, XnY mutation of SEQ ID No. 1, expressed in Escherichia coli (protein) MKLLPCKEWHQGIPNPRCWCGADLECAQDQACAFIPQCRPRSELIKPMDDIYQRPVEFPNLPLKPREE | 69
10 | N60A: modified tridegin, XnY mutation of SEQ ID No. 1, expressed in Escherichia coli (protein) MKLLPCKEWHQGIPNPRCWCGADLECAQDQYCAFIPQCRPRSELIKPMDDIYQRPVEFPALPLKPREE | 68
11 | R39A: modified tridegin, XnY mutation of SEQ ID No. 1, expressed in Escherichia coli (protein) MKLLPCKEWHQGIPNPRCWCGADLECAQDQYCAFIPQCAPRSELIKPMDDIYQRPVEFPNLPLKPREE | 49
12 | D50A, P55L: spontaneously arising double mutant of tridegin SEQ ID No. 1, expressed in Escherichia coli (protein) MKLLPCKEWHQGIPNPRCWCGADLECAQDQYCAFIPQCRPRSELIKPMDAIYQRLVEFPNLPLKPREE | 84
13 | K02A: modified tridegin, XnY mutation of SEQ ID No. 1, expressed in Escherichia coli (protein) MALLPCKEWHQGIPNPRCWCGADLECAQDQYCAFIPQCRPRSELIKPMDDIYQRPVEFPNLPLKPREE | 113
14 | F34A: modified tridegin, XnY mutation of SEQ ID No. 1, expressed in Escherichia coli (protein) MKLLPCKEWHQGIPNPRCWCGADLECAQDQYCAAIPQCRPRSELIKPMDDIYQRPVEFPNLPLKPREE | 96
15 | K07A: modified tridegin, XnY mutation of SEQ ID No. 1, expressed in Escherichia coli (protein) MKLLPCAEWHQGIPNPRCWCGADLECAQDQYCAFIPQCRPRSELIKPMDDIYQRPVEFPNLPLKPREE | 90
16 | P65A: modified tridegin, XnY mutation of SEQ ID No. 1, expressed in Escherichia coli (protein) MKLLPCKEWHQGIPNPRCWCGADLECAQDQYCAFIPQCRPRSELIKPMDDIYQRPVEFPNLPLKAREE | 51

Same assay, conditions: Table 3; final peptide concentration 7.27 μM; recombinant tridegin polypeptide at 7.27 μM normalized to 100%

Row | Molecule | relative inhibitory effect (% of recombinant tridegin) at 7.27 µM [%]
17 | Ac-DDIYQRPVEFPNLPLKPREE-NH2 [SEQ ID No. 26] | 35.6
18 | Ac-IKPMDDIYQRPVEFPNLPLK-NH2 [SEQ ID No. 24] | 43.5
19 | Ac-PMDDIYQRPVEFPNLPLKPR-NH2 [SEQ ID No. 25] | 42.1

Same assay, conditions: Table 4, Cys variants; final variant concentration 5.45 μM; wild-type tridegin polypeptide normalized to 100%

Row | Molecule | Relative inhibitory effect (%)
20 | C20A: tridegin modified by replacement of a cysteine residue, expressed in Escherichia coli (protein) MKLLPCKEWHQGIPNPRCWAGADLECAQDQYCAFIPQCRPRSELIKPMDDIYQRPVEFPNLPLKPREE | 63
21 | C18A: tridegin modified by replacement of a cysteine residue, expressed in Escherichia coli (protein) MKLLPCKEWHQGIPNPRAWCGADLECAQDQYCAFIPQCRPRSELIKPMDDIYQRPVEFPNLPLKPREE | 93
22 | C06A: tridegin modified by replacement of a cysteine residue, expressed in Escherichia coli (protein) MKLLPAKEWHQGIPNPRCWCGADLECAQDQYCAFIPQCRPRSELIKPMDDIYQRPVEFPNLPLKPREE | 72
